Experimental data reported in patent US20260125455A1 (CLEVELAND CLINIC FOUNDATION, published 2026).

Experiments:
[1] = target: T1, human complement protein C6 (human, UniProt P13671 22-934); assay: SPR (Biacore 8K)
T1 construct: also called human C6; C6 antigen
Procedure: (§1) The kinetics of C6 binding was compared for the purified chimeric and lead humanized C601 using surface plasmon resonance (SPR, Biacore 8K). IgG were captured on a protein G sensor chip and binding of C6 measured using a three-fold concentration series of C6 from 0.03 nM-25 nM (FIG. 5). In a second experiment, a two-fold concentration series from 0.31 nM-20 nM C6 was used (FIG. 6). For all antibodies, binding of C6 occurred in a concentration-dependent manner and data could be fitted using a 1:1 model to calculate the association rate (kₒₙ), dissociation rates (kd) and affinity constant (KD). The kinetic data are shown in Table 5, which indicates only small differences between the parameters determined from the two independent experiments.
(§2) Binding ELISAs used Nunc Maxisorp 384-well plates, wells coated with C6, C5b,6 complex or C5 (Complement Technology Inc, TX) and goat anti-human IgG (Fab specific) peroxidase secondary antibodies (Sigma-Aldrich, A0293) for detection. For the thermal stability assay, IgG supernatants were diluted to their EC₈₀ concentration, incubated at different temperatures for 10 min and C6 binding measured by ELISA with the binding signal plotted against temperature. Kinetics of C6 binding were measured by capturing antibodies from supernatant samples using Protein G biosensors and performing a 20 min association step with 2.5 nM C6 and a 20 min dissociation step using the Octet RED96. Precise kinetic measurements were obtained by surface plasmon resonance (Biacore 8K, Cytiva). The IgG were captured on a protein G sensor chip. Binding of C6 measured using a three-fold concentration series of C6 from 0.03 nM-25 nM and data were fitted using a 1:1 model in two independent experiments.

[2] = target: T1, human complement protein C6; assay: SPR (Biacore 8K); remark: listed apart in the source
Procedure: as §1
Binding ELISAs used Nunc Maxisorp 384-well plates, wells coated with C6, C5b,6 complex or C5 (Complement Technology Inc, TX) and goat anti-human IgG (Fab specific) peroxidase secondary antibodies (Sigma-Aldrich, A0293) for detection. For the thermal stability assay, IgG supernatants were diluted to their EC₈₀ concentration, incubated at different temperatures for 10 min and C6 binding measured by ELISA with the binding signal plotted against temperature. […] Binding of C6 measured using a three-fold concentration series of C6 from 0.03 nM-25 nM and data were fitted using a 1:1 model in two independent experiments.

[3] = target: T1, human complement protein C6; assay: ELISA, C6-coated wells
[4] = target: T1, human complement protein C6; assay: BLI (Octet), antibody on Protein G biosensors, 1:1 fit, experiment 2
[5] = target: T1, human complement protein C6; assay: SPR (Biacore 8K), IgG on protein G chip, C6 0.03-25 nM 3-fold series, 1:1 fit
Procedure: as §1, §2

[6] = target: T1, human complement protein C6; assay: SPR (Biacore 8K), IgG on protein G chip, C6 0.31-20 nM 2-fold series, 1:1 fit
Procedure: as §1

[7] = target: human complement protein C5 (human, UniProt P01031 19-673; P01031 678-1676); assay: ELISA, C5-coated wells
Sequence of human complement protein C5 (P01031 19-673 limits assumed, chain 1 of 2): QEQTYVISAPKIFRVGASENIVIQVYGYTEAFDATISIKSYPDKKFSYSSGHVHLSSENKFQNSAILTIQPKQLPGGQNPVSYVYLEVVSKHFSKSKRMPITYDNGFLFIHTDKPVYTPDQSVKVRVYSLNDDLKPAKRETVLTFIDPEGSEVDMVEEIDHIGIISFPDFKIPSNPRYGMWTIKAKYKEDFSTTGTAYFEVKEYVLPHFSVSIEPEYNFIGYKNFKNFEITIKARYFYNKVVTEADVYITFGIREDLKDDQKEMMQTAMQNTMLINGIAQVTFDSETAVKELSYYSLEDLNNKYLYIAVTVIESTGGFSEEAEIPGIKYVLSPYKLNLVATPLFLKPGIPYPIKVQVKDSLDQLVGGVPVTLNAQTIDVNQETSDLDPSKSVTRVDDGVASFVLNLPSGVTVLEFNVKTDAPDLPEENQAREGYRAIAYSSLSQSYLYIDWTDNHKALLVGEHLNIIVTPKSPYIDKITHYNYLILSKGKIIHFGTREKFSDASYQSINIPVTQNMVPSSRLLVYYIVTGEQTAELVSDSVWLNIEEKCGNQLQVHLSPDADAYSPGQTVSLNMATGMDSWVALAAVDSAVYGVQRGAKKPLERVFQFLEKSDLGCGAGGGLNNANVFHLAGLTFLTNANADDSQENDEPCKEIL
Sequence of human complement protein C5 (P01031 678-1676 limits assumed, chain 2 of 2): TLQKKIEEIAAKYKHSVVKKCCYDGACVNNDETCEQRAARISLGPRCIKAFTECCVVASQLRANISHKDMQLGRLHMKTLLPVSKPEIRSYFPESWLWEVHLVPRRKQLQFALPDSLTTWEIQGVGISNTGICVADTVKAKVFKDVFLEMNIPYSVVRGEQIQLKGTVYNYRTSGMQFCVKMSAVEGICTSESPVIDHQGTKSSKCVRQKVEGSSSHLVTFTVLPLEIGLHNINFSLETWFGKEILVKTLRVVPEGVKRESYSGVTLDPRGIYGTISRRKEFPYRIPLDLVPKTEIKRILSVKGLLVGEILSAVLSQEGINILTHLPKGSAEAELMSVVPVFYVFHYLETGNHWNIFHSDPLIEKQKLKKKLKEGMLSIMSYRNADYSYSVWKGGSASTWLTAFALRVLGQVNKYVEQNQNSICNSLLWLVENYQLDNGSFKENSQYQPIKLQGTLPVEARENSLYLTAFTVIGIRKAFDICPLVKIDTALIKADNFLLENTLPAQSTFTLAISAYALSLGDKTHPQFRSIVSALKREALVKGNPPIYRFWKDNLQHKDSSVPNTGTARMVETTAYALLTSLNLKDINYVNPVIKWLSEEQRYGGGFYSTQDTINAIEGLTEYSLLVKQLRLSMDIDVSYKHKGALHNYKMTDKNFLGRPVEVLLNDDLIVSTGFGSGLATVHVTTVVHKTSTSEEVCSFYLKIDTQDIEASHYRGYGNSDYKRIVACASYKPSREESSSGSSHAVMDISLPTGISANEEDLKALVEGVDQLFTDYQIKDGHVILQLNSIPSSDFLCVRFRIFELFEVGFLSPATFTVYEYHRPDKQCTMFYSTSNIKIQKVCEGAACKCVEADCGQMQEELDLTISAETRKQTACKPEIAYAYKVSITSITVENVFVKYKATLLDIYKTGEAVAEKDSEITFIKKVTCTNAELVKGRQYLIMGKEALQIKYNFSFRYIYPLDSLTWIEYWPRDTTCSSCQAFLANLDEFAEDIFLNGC
Procedure: The 20 purified antibodies were tested by ELISA for their abilities to bind human complement proteins C5, C5b6 and C6. The antibodies were divided into two sets for this analysis. MoC601 HuG4K and HuG4K isotype controls were included alongside each set, as was C601HFKC4 HuG4K (aka 3713) expression supernatant from the original transfection as an additional positive control. In addition, three humanized antibodies (C601HFKC4 HuG4K, C601HPKI HuG4K and C601HPKC4 HuG4K) were included within both sets to allow better comparison between the plates. The antibodies all show specificity for C6 with no detectable binding to C5. All humanized antibodies bind to C6 and to C6 as part of the C5b6 complex. The lower plateaus of the C5b6 complex binding curves are explained by less C6 protein being available for binding when wells are coated with C5b6 complex as opposed to C6 alone. […] The EC₅₀ values are included in the figure but slightly different plateau levels observed for the antibodies are influencing the apparent EC₅₀ values. However, it was noted that the EC₅₀ values tended to be lower on the plates for the second set of antibodies. For this reason, a subset of the 20 antibodies was tested in a further ELISA for binding to C6 and C5b6 complex.
as §2

[8] = target: T1, human complement protein C6; assay: C6-binding ELISA, A650 nm; sample 'PBS' (28 days at 37 C)
Procedure: For the serum stability assessment, samples of the purified candidate antibodies are normally incubated in mouse, human and cynomolgus serum at 37 C for 28 days and then tested in an antigen-binding ELISA. Since the anti-C6 antibodies are expected to bind to both human and cynomolgus C6 but not mouse C6, we anticipated that incubating in human or cynomolgus sera would reduce ELISA binding due to occupation of the antibody binding sites by C6 protein from the sera. Therefore, the chimeric and humanized antibodies were tested with human and mouse sera and with human sera from which the C6 protein has been depleted. […]
as §2, with “Precise kinetic measurements were obtained by surface plasmon resonance (Biacore 8K, Cytiva). The IgG were captured on a protein G sensor chip. Binding of C6 measured using a three-fold concentration series of C6 from 0.03 nM-25 nM and data were fitted using a 1:1 model in two independent experiments.” left out

[9] = target: T1, human complement protein C6; assay: C6-binding ELISA, A650 nm; sample 'C6-depleted human serum' (28 days at 37 C)
Procedure: For the serum stability assessment, samples of the purified candidate antibodies are normally incubated in mouse, human and cynomolgus serum at 37 C for 28 days and then tested in an antigen-binding ELISA. Since the anti-C6 antibodies are expected to bind to both human and cynomolgus C6 but not mouse C6, we anticipated that incubating in human or cynomolgus sera would reduce ELISA binding due to occupation of the antibody binding sites by C6 protein from the sera. Therefore, the chimeric and humanized antibodies were tested with human and mouse sera and with human sera from which the C6 protein has been depleted. The C6-binding ELISA was then used to compare the binding abilities of the C601 antibodies that had been incubated in the 3 different sera to antibody samples that were incubated in PBS at 37 C or kept at 4 C (non-incubated).
The Uncle instrument (Unchained Labs) was used to monitor unfolding via intrinsic fluorescence and aggregation by static light scattering across a temperature gradient to obtain melting temperatures (Tₘ). […] Isoelectric points were determined by capillary isoelectric focusing using a PA800+ (Beckman Coulter). […]

T1 sequence (P13671 22-934 limits assumed): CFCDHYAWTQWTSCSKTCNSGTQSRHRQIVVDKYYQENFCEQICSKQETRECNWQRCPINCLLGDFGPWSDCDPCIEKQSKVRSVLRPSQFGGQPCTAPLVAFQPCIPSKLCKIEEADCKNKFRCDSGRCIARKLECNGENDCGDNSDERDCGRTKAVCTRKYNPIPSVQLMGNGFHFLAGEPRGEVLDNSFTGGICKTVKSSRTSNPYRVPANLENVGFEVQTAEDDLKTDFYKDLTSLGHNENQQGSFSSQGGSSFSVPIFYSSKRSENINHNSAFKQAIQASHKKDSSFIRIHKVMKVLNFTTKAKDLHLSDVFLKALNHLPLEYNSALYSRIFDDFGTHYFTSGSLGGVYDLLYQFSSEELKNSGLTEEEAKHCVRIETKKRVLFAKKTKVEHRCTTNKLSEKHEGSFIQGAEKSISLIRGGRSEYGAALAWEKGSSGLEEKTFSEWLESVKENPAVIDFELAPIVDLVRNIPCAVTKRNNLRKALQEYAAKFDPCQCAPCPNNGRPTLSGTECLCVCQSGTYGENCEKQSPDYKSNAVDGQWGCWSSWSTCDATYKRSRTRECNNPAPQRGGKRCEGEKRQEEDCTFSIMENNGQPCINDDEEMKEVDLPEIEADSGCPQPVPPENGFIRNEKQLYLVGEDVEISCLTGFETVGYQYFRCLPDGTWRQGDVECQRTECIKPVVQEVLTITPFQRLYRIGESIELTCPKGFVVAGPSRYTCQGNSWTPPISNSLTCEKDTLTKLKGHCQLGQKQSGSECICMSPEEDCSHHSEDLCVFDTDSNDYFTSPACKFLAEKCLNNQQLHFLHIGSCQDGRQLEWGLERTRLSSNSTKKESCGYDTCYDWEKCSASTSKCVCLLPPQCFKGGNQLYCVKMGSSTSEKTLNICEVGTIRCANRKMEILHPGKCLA

B1: MoC601 HuG4K (chimeric C601 antibody) (antibody, human IgG4 S228P, kappa, V domains shown)
VH: QVQLQQSGAELVKPGASVKISCKASGYAFSDYWMNWVKQRPGKGLEWIGQIYPGDDDTNYNGKFKGKATLTADKSSSTAYMQLSSLTSEDSAVYFCAREGYYGYTYVEYFDVWGTGTTVTVSS
VL: QIVLTQSPAIMSVSPGEKVTLTCSASSSVSYMHWYQQKSGTSPKRWIYDTSKLASGVPARFSGSGSGTSYSLTISSMEAEDAATYYCQQWTSNPLTFGAGTKLELRR
notes: also called chimeric antibody; chimeric 1C9
Binder B1 has a Kd [1] of 0.527 nM, a Kd [2] of 0.527 nM and an EC50 [3] of 0.2 nM. For the same binder, the Kd [4] was 0.35 nM, the koff [4] was 0.00024 s⁻¹ and the kon [4] was 690000 M⁻¹ s⁻¹. It also gave a Kd [5] of 0.527 nM, a koff [5] of 0.000448 s⁻¹ and a kon [5] of 850000 M⁻¹ s⁻¹. The Kd [6] was 0.459 nM, the koff [6] was 0.000413 s⁻¹ and the kon [6] was 900000 M⁻¹ s⁻¹.

B2: C601HFKC4 HuG4K (antibody, human IgG4 S228P, kappa)
heavy: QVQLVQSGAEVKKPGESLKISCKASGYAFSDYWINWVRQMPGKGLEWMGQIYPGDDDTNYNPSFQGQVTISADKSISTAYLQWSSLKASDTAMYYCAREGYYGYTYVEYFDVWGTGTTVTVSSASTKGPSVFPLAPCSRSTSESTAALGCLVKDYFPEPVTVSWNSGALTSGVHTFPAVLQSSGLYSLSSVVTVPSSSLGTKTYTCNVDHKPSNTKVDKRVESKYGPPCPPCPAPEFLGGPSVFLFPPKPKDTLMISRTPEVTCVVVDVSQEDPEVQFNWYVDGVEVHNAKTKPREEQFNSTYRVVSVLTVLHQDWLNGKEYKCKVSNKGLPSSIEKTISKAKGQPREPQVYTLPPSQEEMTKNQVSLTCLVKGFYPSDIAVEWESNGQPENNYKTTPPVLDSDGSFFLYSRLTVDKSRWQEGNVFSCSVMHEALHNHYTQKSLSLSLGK
light: QIVLTQSPATLSLSPGERATLSCRASSSVSYLHWYQQKPGQSPRLWIYDTSKRATGIPARFSGSGSGTDYTLTISSLEPEDFAVYYCQQWTSNPLTFGQGTKLEIKRTVAAPSVFIFPPSDEQLKSGTASVVCLLNNFYPREAKVQWKVDNALQSGNSQESVTEQDSKDSTYSLSSTLTLSKADYEKHKVYACEVTHQGLSSPVTKSFNRGEC
notes: also called 3713; clone 3713
B2 was tested, and the Kd [1] was 0.343 nM, the Kd [2] was 0.343 nM and the binding result [7] was “no binding”. For the same binder, the EC50 [3] was 0.19 nM, the EC50 [8] was 0.19 nM and the Kd [5] was 0.343 nM. The koff [5] was 0.000389 s⁻¹, the kon [5] was 1.13e+06 M⁻¹ s⁻¹ and the Kd [6] was 0.226 nM. The koff [6] was 0.000306 s⁻¹, the kon [6] was 1.36e+06 M⁻¹ s⁻¹ and the EC50 [9] was 0.17 nM.
